The results in this text go back to IntAct's records for PubMed 24152121.

One test deals with vps29_mouse Vps29 (UniProt Q9QZ88).
For the next test, the target named is vp26a_mouse Vps26a (UniProt P40336).

As for “Vacuolar protein sorting-associated protein 35 (Homo sapiens) (from UniProt Q96QK1) D620N”, the “effect of a mutation on the interaction” value with vps29_mouse Vps29 and in the test with vp26a_mouse Vps26a was “with no effect” in each case.
